This note sets out measurements from patent EP4806467A2.

Assay [1] concerns the target ADAM9 on human tumour cells (LS174T, HepG2, Calu-3) (human) (UniProt Q13443). In words: flow cytometry on HepG2 cells, negative control, 250 nM. In general terms: A flow cytometer gives signals particle by particle.
Assay [2] shares this target. Kind of assay: flow cytometry on LS174T cells, negative control, 250 nM.
For assay [3] the target is unchanged. Kind of assay: flow cytometry on HepG2 cells, negative control, 1000 nM.
Assay [4] shares this target. Kind of assay: flow cytometry on HepG2 cells, negative control, 0.976563 nM.
Assay [5] shares this target. In words: flow cytometry on HepG2 cells, negative control, 0.000954 nM.
The target is the same in assay [6]. In words: flow cytometry on HepG2 cells, negative control, 0.244141 nM.
Assay [7] has the same target. In words: flow cytometry on LS174T cells, negative control, 0.976563 nM.
The target is the same in assay [8]. Kind of assay: flow cytometry on HepG2 cells, negative control, 3.906250 nM.
Assay [9] shares this target. In words: flow cytometry on HepG2 cells, negative control, 0.061035 nM.
Assay [10] has the same target. Kind of assay: flow cytometry on HepG2 cells, negative control, 62.5 nM.
Assay [11] has the same target. Kind of assay: flow cytometry on LS174T cells, negative control, 15.625 nM.
Assay [12] shares this target. In words: flow cytometry on LS174T cells, negative control, 0.061035 nM.
For assay [13] the target is unchanged. Kind of assay: flow cytometry on LS174T cells, negative control, 0.244141 nM.
The target is the same in assay [14]. Kind of assay: flow cytometry on LS174T cells, negative control, 0.003815 nM.
Assay [15] has the same target. In words: flow cytometry on HepG2 cells, negative control, 0.000238 nM.
Assay [16] shares this target. Kind of assay: flow cytometry on LS174T cells, negative control, 62.5 nM.
Assay [17] has the same target. Kind of assay: flow cytometry on LS174T cells, negative control, 3.906250 nM.
For assay [18] the target is unchanged. Kind of assay: flow cytometry on HepG2 cells, negative control, 15.625 nM.
The target is the same in assay [19]. Kind of assay: flow cytometry on HepG2 cells, negative control, 0.015259 nM.
Assay [20] has the same target. Kind of assay: flow cytometry on HepG2 cells, negative control, 0.003815 nM.
Assay [21] has the same target. Kind of assay: flow cytometry on LS174T cells, negative control, 0.015259 nM.
Assay [22] has the same target. Kind of assay: flow cytometry on LS174T cells, negative control, 0.000954 nM.
For assay [23] the target is unchanged. Kind of assay: flow cytometry on LS174T cells, negative control, 1000 nM.
For assay [24] the target is unchanged. Kind of assay: flow cytometry on HepG2 cells, 15.625 nM.
Assay [25] has the same target. Kind of assay: flow cytometry on HepG2 cells, 0.003815 nM.
Assay [26] has the same target. In words: flow cytometry on HepG2 cells, 62.5 nM.
Assay [27] shares this target. Kind of assay: flow cytometry on HepG2 cells, 3.906250 nM.
For assay [28] the target is unchanged. In words: flow cytometry on HepG2 cells, 0.000238 nM.
For assay [29] the target is unchanged. In words: flow cytometry on HepG2 cells, 0.976563 nM.
Assay [30] shares this target. Kind of assay: flow cytometry on HepG2 cells, 0.061035 nM.
For assay [31] the target is unchanged. Kind of assay: flow cytometry on HepG2 cells, 250 nM.
For assay [32] the target is unchanged. In words: flow cytometry on HepG2 cells, 0.015259 nM.
For assay [33] the target is unchanged. Kind of assay: flow cytometry on HepG2 cells, 0.000954 nM.
Assay [34] shares this target. Kind of assay: flow cytometry on HepG2 cells, 1000 nM.
Assay [35] has the same target. Kind of assay: flow cytometry on HepG2 cells, 0.244141 nM.
The target is the same in assay [36]. Kind of assay: flow cytometry on LS174T cells, 62.5 nM.
For assay [37] the target is unchanged. Kind of assay: flow cytometry on LS174T cells, 0.003815 nM.
Assay [38] shares this target. In words: flow cytometry on LS174T cells, 0.015259 nM.
For assay [39] the target is unchanged. Kind of assay: flow cytometry on LS174T cells, 250 nM.
Assay [40] has the same target. Kind of assay: flow cytometry on LS174T cells, 1000 nM.
The target is the same in assay [41]. In words: flow cytometry on LS174T cells, 0.976563 nM.
The target is the same in assay [42]. In words: flow cytometry on LS174T cells, 15.625 nM.
The target is the same in assay [43]. Kind of assay: flow cytometry on LS174T cells, 0.000954 nM.
For assay [44] the target is unchanged. Kind of assay: flow cytometry on LS174T cells, 0.061035 nM.
Assay [45] has the same target. Kind of assay: flow cytometry on LS174T cells, 0.244141 nM.
The target is the same in assay [46]. Kind of assay: flow cytometry on LS174T cells, 3.906250 nM.

Sequence of ADAM9 on human tumour cells (LS174T, HepG2, Calu-3) (human) (Q13443 29-819): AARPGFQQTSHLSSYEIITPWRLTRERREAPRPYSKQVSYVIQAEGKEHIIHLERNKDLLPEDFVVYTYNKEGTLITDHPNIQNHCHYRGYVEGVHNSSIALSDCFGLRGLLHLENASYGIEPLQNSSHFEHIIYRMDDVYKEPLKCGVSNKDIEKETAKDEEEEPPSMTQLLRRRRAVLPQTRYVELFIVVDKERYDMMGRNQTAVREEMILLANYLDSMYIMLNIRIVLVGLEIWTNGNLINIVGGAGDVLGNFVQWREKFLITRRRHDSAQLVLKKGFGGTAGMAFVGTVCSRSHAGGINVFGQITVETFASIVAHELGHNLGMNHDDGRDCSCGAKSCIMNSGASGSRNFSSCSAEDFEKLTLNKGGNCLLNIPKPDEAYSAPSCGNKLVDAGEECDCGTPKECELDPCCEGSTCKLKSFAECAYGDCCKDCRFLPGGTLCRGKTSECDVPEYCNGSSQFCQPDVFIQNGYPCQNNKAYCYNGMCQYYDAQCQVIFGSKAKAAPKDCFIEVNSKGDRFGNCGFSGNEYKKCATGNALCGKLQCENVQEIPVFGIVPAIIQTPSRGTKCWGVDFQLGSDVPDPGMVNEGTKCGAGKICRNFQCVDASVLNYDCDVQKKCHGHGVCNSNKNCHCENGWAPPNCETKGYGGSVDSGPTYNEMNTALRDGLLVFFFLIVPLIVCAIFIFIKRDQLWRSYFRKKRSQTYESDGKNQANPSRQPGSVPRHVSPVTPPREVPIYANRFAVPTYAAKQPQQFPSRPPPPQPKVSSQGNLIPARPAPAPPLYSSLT

As for “anti-HIV human IgG antibody (iso-IgG1, produced by WuXi AppTec)”, the Mean fluorescence intensity (MFI) in assay [1] worked out at 389 MFI; in [3] it was 690 MFI; in assay [4] it was 360 MFI; in assay [5], 365 MFI; in assay [6], 363 MFI; in [8] it was 361 MFI. Further, the Mean fluorescence intensity (MFI) is 377 MFI in [9]; 386 MFI in assay [10]; 361 MFI in [15]; 364 MFI in assay [18]; 371 MFI in [19]; 349 MFI in assay [20]. For the same molecule, the Mean fluorescence intensity in assay [2] worked out at 269 MFI; in assay [7], 212 MFI; in [11], 209 MFI; in assay [12], 202 MFI; in [13], 208 MFI; in assay [14] it was 254 MFI. Besides, the Mean fluorescence intensity in [16] amounted to 229 MFI; in assay [17] it was 203 MFI; in assay [21], 213 MFI; in assay [22], 220 MFI; in assay [23] it was 368 MFI.

B1: Ab16-X1 (antibody, human IgG1, kappa, V domains shown)
VH: QVQLQQPGTEVVKPGASVKLSCKASGFTFPLYWMHWVRQRPGRGLEWIGRIIPIFGHTKYNEKFKNKATLTADESSSTAYMELRSLTSDDSAVYYCARGGYYYYPREGFLDYWGQGTSVTVSS
VL: DIVMTQSPASLSVSPGERASISCRSSQSVDYSGDSYMNWYQQKPGQSPRLLIYAASDRESGVPDRFSGSGSGTDFTLKISRVEEEDAGTYYCQQSREDPFTFGQGTKVDIKR
modifications: linker-payload X1 (camptothecin derivative) conjugated after TCEP reduction; DAR p = 7.8 for the whole antibody; positions not given
For B1, the Mean fluorescence intensity (MFI) worked out at 2960 MFI in assay [24]; 396 MFI in assay [25]; 3290 MFI in assay [26]; 1780 MFI in [27]; 370 MFI in assay [28]; 1790 MFI in assay [29]. For the same molecule, the Mean fluorescence intensity (MFI) in [30] stood at 623 MFI; in assay [31], 16600 MFI; in assay [32], 451 MFI; in assay [33], 376 MFI; in assay [34], 17400 MFI; in assay [35] it was 1090 MFI.

B2: Ab16-X2 (antibody, human IgG1, kappa, V domains shown)
VH: B1 VH
VL: B1 VL
modifications: linker-payload X2 (camptothecin derivative) conjugated after TCEP reduction; DAR p = 7.9 for the whole antibody; positions not given
Turning to B2, the Mean fluorescence intensity in assay [36] is 2160 MFI; in assay [37] it was 219 MFI; in [38] it was 268 MFI; in [39], 2130 MFI; in assay [40], 1130 MFI; in assay [41] it was 1960 MFI. Also, the Mean fluorescence intensity was 2400 MFI in [42]; 223 MFI in assay [43]; 447 MFI in [44]; 954 MFI in [45]; 2380 MFI in assay [46].
